# Reference: paper PMC7949108, “Medulloblastoma-associated mutations in the DEAD-box RNA helicase DDX3X/DED1 cause specific defects in translation”
# Assays:
# Assay in all cases: fluorescence anisotropy; 2 mM ADP-BeFx; 20 mM HEPES pH 7.5, 40 mM NaCl, 20% glycerol, 2 mM ADP-BeFx; 2 nM RNA, 0-400 nM protein, 30 min; temperature not stated
# Settings in all cases: protein: recombinant; tags: His (pET28a); label: 5' 6-carboxyfluorescein; single strand
# [1] = biological target: Ded1-M339I (Saccharomyces cerevisiae, UniProt P06634 1-604, M339I)
# [2] = biological target: Ded1 wild-type (Saccharomyces cerevisiae, UniProt P06634 1-604)
# [3] = biological target: Ded1-S371F (Saccharomyces cerevisiae, UniProt P06634 1-604, S371F)
# [4] = biological target: Ded1-G488A (Saccharomyces cerevisiae, UniProt P06634 1-604, G488A)
# Ded1-G488A, sequence (P06634 whole entry G488A): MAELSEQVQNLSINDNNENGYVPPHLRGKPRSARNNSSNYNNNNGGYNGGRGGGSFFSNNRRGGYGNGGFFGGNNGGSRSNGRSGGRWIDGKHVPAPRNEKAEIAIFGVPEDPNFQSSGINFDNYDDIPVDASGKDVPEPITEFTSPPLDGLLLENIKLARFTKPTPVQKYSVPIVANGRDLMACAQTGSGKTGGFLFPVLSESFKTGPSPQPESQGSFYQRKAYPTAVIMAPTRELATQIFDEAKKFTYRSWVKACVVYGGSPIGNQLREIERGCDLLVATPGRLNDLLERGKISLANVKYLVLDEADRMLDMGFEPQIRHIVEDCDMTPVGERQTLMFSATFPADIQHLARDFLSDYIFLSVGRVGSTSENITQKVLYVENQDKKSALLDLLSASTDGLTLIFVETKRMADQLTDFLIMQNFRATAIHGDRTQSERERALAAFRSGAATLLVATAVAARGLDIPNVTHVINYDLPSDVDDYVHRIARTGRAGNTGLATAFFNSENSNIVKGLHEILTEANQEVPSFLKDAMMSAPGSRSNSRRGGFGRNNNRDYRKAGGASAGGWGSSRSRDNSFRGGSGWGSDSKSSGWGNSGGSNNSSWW
# Ded1-S371F, sequence (P06634 whole entry S371F): as the sequence (P06634 whole entry G488A) above, with S371F, A488G counted along it
# Ded1-M339I, sequence (P06634 whole entry M339I): as the sequence (P06634 whole entry G488A) above, with M339I, A488G counted along it
# Ded1 wild-type, sequence (P06634 whole entry): as the sequence (P06634 whole entry G488A) above, with A488G counted along it
binder,measurement,setting,value
AGCACCGUAAAGACGC (ssRNA) [16-mer RNA oligomer],Kd,[1],110 nM
same,Kd,[2],13 nM
same,Kd,[3],11 nM
same,Kd,[4],78 nM
